Measured values published in publication PMC8244287 (Current Research in Structural Biology, 2021).

Biological target: the molecule itself
Assay: SDS-PAGE

B1: BbZIP, zinc transporter from Bordetella bronchiseptica, full-length, N-terminal His6 (natural protein, UniProt A0A0H3LM39 1-309, looked up)
chain: MNQPSSLAADLRGAWHAQAQSHPLITLGLAASAAGVVLLLVAGIVNALTGENRVHVGYAVLGGAAGFAATALGALMALGLRAISARTQDAMLGFAAGMMLAASAFSLILPGLDAAGTIVGPGPAAAAVVALGLGLGVLLMLGLDYFTPHEHERTGHQGPEAARVNRVWLFVLTIILHNLPEGMAIGVSFATGDLRIGLPLTSAIAIQDVPEGLAVALALRAVGLPIGRAVLVAVASGLMEPLGALVGVGISSGFALAYPISMGLAAGAMIFVVSHEVIPETHRNGHETTATVGLMAGFALMMFLDTALG
Which “stoichiometry N” value does the source give for B1 here?
The value was 2.
